According to publication PMC11969024 (2025):

B1: peptide HD2 (from tick evasin EVA4) / CCL11 (biotinylated, synthetic) (parent complex)
chain 1: EEDDYTAYAPLTCYFT
chain 2: not shown

Variants of: B1

Compared with chain 1 D4H, chain 1 D4V is higher in enrichment: -5.76 log2 (difference from the parental peptide) for the first, -4.79 log2 (difference from the parental peptide) for the second.

Going from chain 1 Y14C to chain 1 Y14S, the enrichment rises from -5.72 log2 (difference from the parental peptide) to -5.39 log2 (difference from the parental peptide).

Compared with chain 1 Y14N, chain 1 Y14L is higher in enrichment: -4.02 log2 (difference from the parental peptide) for the first, -3.46 log2 (difference from the parental peptide) for the second.

First: chain 1 Y14W
Second: chain 1 Y14H
The enrichment of the first is higher: -0.519 log2 (difference from the parental peptide) for the first, -2.21 log2 (difference from the parental peptide) for the second.

Compared with chain 1 Y14A, chain 1 Y14G is lower in enrichment: -6.29 log2 (difference from the parental peptide) for the first, -8.75 log2 (difference from the parental peptide) for the second.

Going from chain 1 Y14M to chain 1 Y14I, the enrichment falls from -2.62 log2 (difference from the parental peptide) to -2.68 log2 (difference from the parental peptide).

Going from chain 1 Y14K to chain 1 C13L, the enrichment rises from -7.74 log2 (difference from the parental peptide) to -6.8 log2 (difference from the parental peptide).

Compared with chain 1 C13P, chain 1 C13W is lower in enrichment: -6.72 log2 (difference from the parental peptide) for the first, -7.9 log2 (difference from the parental peptide) for the second.

First: chain 1 C13V
Second: chain 1 C13T
The enrichment of the first is higher: -5.2 log2 (difference from the parental peptide) for the first, -6.48 log2 (difference from the parental peptide) for the second.

First: chain 1 C13I
Second: chain 1 C13N
The enrichment of the first is higher: -6.17 log2 (difference from the parental peptide) for the first, -8.78 log2 (difference from the parental peptide) for the second.

First: chain 1 C13F
Second: chain 1 C13G
The enrichment of the first is higher: -7.62 log2 (difference from the parental peptide) for the first, -8.69 log2 (difference from the parental peptide) for the second.

Compared with chain 1 C13E, chain 1 F15L is higher in enrichment: -8.19 log2 (difference from the parental peptide) for the first, 0.0745 log2 (difference from the parental peptide) for the second.

First: chain 1 F15A
Second: chain 1 F15D
The enrichment of the first is higher: 0.737 log2 (difference from the parental peptide) for the first, -0.00314 log2 (difference from the parental peptide) for the second.

Going from chain 1 F15E to chain 1 F15Q, the enrichment falls from 0.713 log2 (difference from the parental peptide) to -0.31 log2 (difference from the parental peptide).

First: chain 1 F15M
Second: chain 1 F15I
The enrichment of the first is higher: 0.54 log2 (difference from the parental peptide) for the first, 0.05 log2 (difference from the parental peptide) for the second.

Compared with chain 1 F15R, chain 1 F15T is higher in enrichment: -3.27 log2 (difference from the parental peptide) for the first, 1.13 log2 (difference from the parental peptide) for the second.

Going from chain 1 A7D to chain 1 A7L, the enrichment falls from 2.81 log2 (difference from the parental peptide) to 0.532 log2 (difference from the parental peptide).

Going from chain 1 A7I to chain 1 A7H, the enrichment falls from -0.213 log2 (difference from the parental peptide) to -0.338 log2 (difference from the parental peptide).

First: chain 1 A7Q
Second: chain 1 A7K
The enrichment of the first is higher: 2.3 log2 (difference from the parental peptide) for the first, 1.27 log2 (difference from the parental peptide) for the second.

First: chain 1 Y5I
Second: chain 1 Y5P
The enrichment of the first is higher: -4.75 log2 (difference from the parental peptide) for the first, -7.31 log2 (difference from the parental peptide) for the second.

Compared with chain 1 Y5E, chain 1 Y5L is lower in enrichment: 0.188 log2 (difference from the parental peptide) for the first, -2.37 log2 (difference from the parental peptide) for the second.

First: chain 1 Y5C
Second: chain 1 E1N
The enrichment of the first is lower: -5.28 log2 (difference from the parental peptide) for the first, -0.236 log2 (difference from the parental peptide) for the second.

First: chain 1 E1Q
Second: chain 1 E1W
The enrichment of the first is higher: -0.591 log2 (difference from the parental peptide) for the first, -3.15 log2 (difference from the parental peptide) for the second.

Going from chain 1 E1M to chain 1 E1Y, the enrichment falls from -0.0601 log2 (difference from the parental peptide) to -1.08 log2 (difference from the parental peptide).

Going from chain 1 E1I to chain 1 E1L, the enrichment falls from -0.709 log2 (difference from the parental peptide) to -1.42 log2 (difference from the parental peptide).

Compared with chain 1 E1D, chain 1 E2M is lower in enrichment: 2.04 log2 (difference from the parental peptide) for the first, -1.91 log2 (difference from the parental peptide) for the second.

Compared with chain 1 E2Q, chain 1 E2S is lower in enrichment: -1.08 log2 (difference from the parental peptide) for the first, -1.71 log2 (difference from the parental peptide) for the second.

First: chain 1 E2N
Second: chain 1 E2K
The enrichment of the first is higher: -2.1 log2 (difference from the parental peptide) for the first, -3.4 log2 (difference from the parental peptide) for the second.

First: chain 1 T6W
Second: chain 1 T6R
The enrichment of the first is higher: -0.511 log2 (difference from the parental peptide) for the first, -0.866 log2 (difference from the parental peptide) for the second.

Going from chain 1 T6G to chain 1 T6V, the enrichment falls from 2.76 log2 (difference from the parental peptide) to -3.9 log2 (difference from the parental peptide).

Going from chain 1 T6P to chain 1 T6Y, the enrichment rises from -4.98 log2 (difference from the parental peptide) to -1.69 log2 (difference from the parental peptide).

First: chain 1 T6S
Second: chain 1 T6H
The enrichment of the first is higher: 2.88 log2 (difference from the parental peptide) for the first, -0.677 log2 (difference from the parental peptide) for the second.

Compared with chain 1 P10E, chain 1 P10W is higher in enrichment: -7.48 log2 (difference from the parental peptide) for the first, -7.42 log2 (difference from the parental peptide) for the second.

Compared with chain 1 D3A, chain 1 D3R is lower in enrichment: -2.56 log2 (difference from the parental peptide) for the first, -4.57 log2 (difference from the parental peptide) for the second.

Going from chain 1 D3G to chain 1 D3V, the enrichment falls from -2.94 log2 (difference from the parental peptide) to -3.65 log2 (difference from the parental peptide).

Going from chain 1 D3K to chain 1 D3Y, the enrichment rises from -4.93 log2 (difference from the parental peptide) to -0.781 log2 (difference from the parental peptide).

First: chain 1 D3T
Second: chain 1 D3F
The enrichment of the first is lower: -2 log2 (difference from the parental peptide) for the first, -1.93 log2 (difference from the parental peptide) for the second.

Compared with chain 1 D3Q, chain 1 L11F is higher in enrichment: -4.56 log2 (difference from the parental peptide) for the first, -0.71 log2 (difference from the parental peptide) for the second.

Going from chain 1 L11W to chain 1 L11E, the enrichment falls from -0.874 log2 (difference from the parental peptide) to -2.74 log2 (difference from the parental peptide).

Compared with chain 1 L11K, chain 1 L11G is lower in enrichment: -0.948 log2 (difference from the parental peptide) for the first, -5.15 log2 (difference from the parental peptide) for the second.

First: chain 1 L11A
Second: chain 1 Y8S
The enrichment of the first is higher: -0.668 log2 (difference from the parental peptide) for the first, -6.51 log2 (difference from the parental peptide) for the second.

Going from chain 1 Y8I to chain 1 Y8C, the enrichment rises from -9.96 log2 (difference from the parental peptide) to -9.26 log2 (difference from the parental peptide).

Going from chain 1 T16N to chain 1 T16S, the enrichment rises from 0.695 log2 (difference from the parental peptide) to 1.18 log2 (difference from the parental peptide).

Compared with chain 1 T16G, chain 1 T16I is lower in enrichment: 1.39 log2 (difference from the parental peptide) for the first, 0.443 log2 (difference from the parental peptide) for the second.

Going from chain 1 T16P to chain 1 T16E, the enrichment rises from 1.77 log2 (difference from the parental peptide) to 2.21 log2 (difference from the parental peptide).

First: chain 1 T16V
Second: chain 1 T12G
The enrichment of the first is higher: 0.462 log2 (difference from the parental peptide) for the first, -9.29 log2 (difference from the parental peptide) for the second.

Going from chain 1 T12W to chain 1 T12E, the enrichment rises from -2.96 log2 (difference from the parental peptide) to -1.39 log2 (difference from the parental peptide).

Going from chain 1 T12C to chain 1 T12V, the enrichment rises from -6.12 log2 (difference from the parental peptide) to -0.494 log2 (difference from the parental peptide).

Going from chain 1 T12L to chain 1 T12S, the enrichment falls from -0.794 log2 (difference from the parental peptide) to -1.64 log2 (difference from the parental peptide).

First: chain 1 T12I
Second: chain 1 T12N
The enrichment of the first is lower: -1.03 log2 (difference from the parental peptide) for the first, -0.967 log2 (difference from the parental peptide) for the second.

First: chain 1 T12R
Second: chain 1 T12D
The enrichment of the first is lower: -3.61 log2 (difference from the parental peptide) for the first, -2.24 log2 (difference from the parental peptide) for the second.

Going from chain 1 A9W to chain 1 A9N, the enrichment rises from -5.62 log2 (difference from the parental peptide) to -5.15 log2 (difference from the parental peptide).

Compared with chain 1 A9P, chain 1 A9I is lower in enrichment: -8.38 log2 (difference from the parental peptide) for the first, -10.6 log2 (difference from the parental peptide) for the second.

First: chain 1 A9Q
Second: chain 1 A9F
The enrichment of the first is higher: -0.313 log2 (difference from the parental peptide) for the first, -8.22 log2 (difference from the parental peptide) for the second.

Compared with chain 1 A9H, chain 1 A9T is higher in enrichment: -4.7 log2 (difference from the parental peptide) for the first, -3.11 log2 (difference from the parental peptide) for the second.
